Test results as given in US20220177587A1, “METHODS AND USES OF VARIANT CD80 FUSION PROTEINS AND RELATED CONSTRUCTS” (Alpine Immune Sciences, Inc., priority 2018, published 2022).

What was measured:
CD28 (human) [1] = target: CD28 (human) (UniProt P10747)
PD-L1 (human) [2] = target: PD-L1 (human) (UniProt Q9NZQ7)
CD28 (human) [3] = target: CD28 (human) (UniProt P10747); remark: listed apart in the source
CD28 (human) [4] = target: CD28 (human) (UniProt P10747); remark: listed apart in the source
PD-L1 (human) [5] = target: PD-L1 (human) (UniProt Q9NZQ7); remark: listed apart in the source
human CTLA-4 (human) [6] = target: human CTLA-4 (human) (UniProt P16410); assay: flow cytometry, Expi293F cells transfected with CTLA-4
human CTLA-4 (human), sequence (P16410 36-223): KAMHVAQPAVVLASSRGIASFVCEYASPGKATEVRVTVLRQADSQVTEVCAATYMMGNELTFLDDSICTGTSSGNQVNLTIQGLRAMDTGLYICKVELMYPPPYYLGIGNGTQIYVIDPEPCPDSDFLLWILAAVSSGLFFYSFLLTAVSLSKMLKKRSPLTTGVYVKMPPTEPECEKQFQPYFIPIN

PD-L1 (human) [7] = target: PD-L1 (human) (UniProt Q9NZQ7); assay: flow cytometry, Expi293F cells transfected with PD-L1
CD28 (human) [8] = target: CD28 (human) (UniProt P10747); assay: flow cytometry, Expi293F cells transfected with CD28
CD28 (human) [9] = target: CD28 (human) (UniProt P10747); assay: flow cytometry, Jurkat cells (CD28)
human CTLA-4 (human) [10] = target: human CTLA-4 (human) (UniProt P16410); assay: flow cytometry, CHO cells stably expressing CTLA4
PD-L1 (human) [11] = target: PD-L1 (human) (UniProt Q9NZQ7); assay: flow cytometry, CHO cells stably expressing PD-L1

PD-L1 (human), sequence (Q9NZQ7 19-290): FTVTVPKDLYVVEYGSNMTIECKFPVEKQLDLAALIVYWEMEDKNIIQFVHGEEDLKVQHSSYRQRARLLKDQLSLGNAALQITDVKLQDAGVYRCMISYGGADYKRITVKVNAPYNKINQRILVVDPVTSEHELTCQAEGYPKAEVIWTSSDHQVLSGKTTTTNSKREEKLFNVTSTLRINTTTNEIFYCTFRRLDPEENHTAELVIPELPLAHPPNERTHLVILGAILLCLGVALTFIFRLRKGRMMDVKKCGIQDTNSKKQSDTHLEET

Jurkat/IL2 reporter RLU at 50 nM, K562/OKT3/PD-L1 aAPC (CD28 (human) [1]) | Jurkat/IL2 reporter RLU at 50 nM, K562/OKT3 aAPC without PD-L1 (CD28 (human) [1]) | Jurkat/IL2 reporter RLU at 50 nM, K562/OKT3/PD-L1 aAPC (PD-L1 (human) [2]) | IL-2 release, primary T cells + K562/OKT3 (No PD-L1), 100 nM (CD28 (human) [3]) | Substance | further results
2640 RLU | 1330 RLU | 2640 RLU | – | CD80 A26E/E35D/M47L/L85Q IgV-Fc (effector) (Fc fusion) | –
4030 RLU | 7110 RLU | 4030 RLU | 21300 | CD80 A71D/L72V/E95K IgV-Fc (effector) (Fc fusion) | –
– | – | – | – | CD80 A71D/L72V/E95K IgV-Fc (inert) (Fc fusion) | Jurkat/IL2 reporter RLU at 50 nM, CHO/OKT3/PD-L1 aAPC (CD28 (human) [4]): 755 RLU; Jurkat/IL2 reporter RLU at 50 nM, CHO/OKT3 aAPC without PD-L1 (CD28 (human) [4]): 644 RLU; Jurkat/IL2 reporter RLU at 50 nM, CHO/OKT3/PD-L1 aAPC (PD-L1 (human) [5]): 755 RLU
– | – | – | – | CD80 A91G ECD-Fc (Fc fusion) | MFI (human CTLA-4 (human) [6]): 200 MFI; MFI (PD-L1 (human) [7]): 85 MFI; parental ratio (PD-L1 (human) [7]): 1.21
4140 RLU | 7860 RLU | 4140 RLU | 27000 | CD80 E23G/A26S/E35D/T62N/A71D/L72V/L85M IgV-Fc (effector) (Fc fusion) | –
– | – | – | – | CD80 E24G/L25P/L70Q/A91G/I118V/T120S/N152T ECD-Fc (Fc fusion) | MFI (human CTLA-4 (human) [6]): 38 MFI; MFI (CD28 (human) [8]): 26 MFI
2270 RLU | 1200 RLU | 2270 RLU | 8380 | CD80 E35D IgV-Fc (effector) (Fc fusion) | –
4130 RLU | 7020 RLU | 4130 RLU | 25400 | CD80 E35D/D46V/L85Q IgV-Fc (effector) (Fc fusion) | –
2780 RLU | 1570 RLU | 2780 RLU | 10500 | CD80 E35D/M43L/L70M IgV-Fc (effector) (Fc fusion) | –
5700 RLU | 7140 RLU | 5700 RLU | 27200 | CD80 E35D/M47I IgV-Fc (effector) (Fc fusion) | –
3870 RLU | 5780 RLU | 3870 RLU | 25300 | CD80 E35D/M47I/L70M IgV-Fc (effector) (Fc fusion) | –
5040 RLU | 8680 RLU | 5040 RLU | 26800 | CD80 E35D/M47L IgV-Fc (effector) (Fc fusion) | –
805 RLU | 1510 RLU | 805 RLU | – | CD80 E35G/K54E/A71D/L72P IgV-Fc (effector) (Fc fusion) | –
5220 RLU | 8750 RLU | 5220 RLU | 20600 | CD80 H18Y/A26T/E35D/A71D/L85Q IgV-Fc (effector) (Fc fusion) | –
– | – | – | – | CD80 H18Y/A26T/E35D/A71D/L85Q IgV-Fc (inert) (Fc fusion) | Jurkat/IL2 reporter RLU at 50 nM, CHO/OKT3/PD-L1 aAPC (CD28 (human) [4]): 1160 RLU; Jurkat/IL2 reporter RLU at 50 nM, CHO/OKT3 aAPC without PD-L1 (CD28 (human) [4]): 926 RLU; Jurkat/IL2 reporter RLU at 50 nM, CHO/OKT3/PD-L1 aAPC (PD-L1 (human) [5]): 1160 RLU
– | – | – | – | CD80 IgV-Fc H18Y/E35D/M47L/V68M/E95V/L97Q (Fc fusion) | MFI at 33.3 nM (CD28 (human) [9]): 2600 MFI; MFI at 33.3 nM (human CTLA-4 (human) [10]): 18000 MFI; MFI at 33.3 nM (PD-L1 (human) [11]): 9630 MFI
– | – | – | – | CD80 IgV-Fc H18Y/E35D/M47L/Y53F/V68M/A71G/K93R/E95V (Fc fusion) | MFI at 33.3 nM (CD28 (human) [9]): 2190 MFI; MFI at 33.3 nM (human CTLA-4 (human) [10]): 19800 MFI; MFI at 33.3 nM (PD-L1 (human) [11]): 9340 MFI
– | – | – | – | CD80 IgV-Fc H18Y/E35D/V68M/A71G/R94Q/E95V (Fc fusion) | MFI at 33.3 nM (CD28 (human) [9]): 455 MFI; Fold change to WT CD80 (human CTLA-4 (human) [10]): 18.6 fold; MFI at 33.3 nM (human CTLA-4 (human) [10]): 19400 MFI; Fold change to WT CD80 (PD-L1 (human) [11]): 25.9 fold; MFI at 33.3 nM (PD-L1 (human) [11]): 1840 MFI
